# Laboratory results taken from patent publication US20250152742A1, “COMPOSITIONS AND METHODS FOR NEUROLOGICAL DISEASES” (Trames Bio, Inc., priority 2022, published 2025).
# Test system: engineered chimeric receptor SEQ ID NO: 33 and its mutants (human α7-nAChR ligand binding domain / human GlyRα1 ion pore domain) in Lenti-X 293T cells
# Experiment: YFP fluorescence quenching anion reporter plate reader assay (percent quench, EC50)
# Format: cell-based
# Conditions: for YFP fluorescence quenching using CNL001 (percent quench): receptor named in row; for YFP fluorescence quenching using Facinicline, 30 nM fac: ligand Facinicline 30 nM; for YFP fluorescence quenching using Facinicline, 300 nM fac: ligand Facinicline 300 nM; for YFP fluorescence quenching using Facinicline, 30 uM fac: ligand Facinicline 30 uM; for YFP fluorescence quenching using TC-6987, 1 uM tc6987: ligand TC-6987 1 uM; for YFP fluorescence quenching using TC-6987, 10 uM tc6987: ligand TC-6987 10 uM; for YFP fluorescence quenching using TC-6987, 500 uM tc6987: ligand TC-6987 500 uM; for YFP fluorescence quenching using Varenicline, 3 nM var: ligand Varenicline 3 nM; for YFP fluorescence quenching using Varenicline, 30 nM var: ligand Varenicline 30 nM; for YFP fluorescence quenching using Varenicline, 300 nM var: ligand Varenicline 300 nM; for YFP fluorescence quenching using Varenicline, 500 nM var: ligand Varenicline 500 nM; for YFP fluorescence quenching using Varenicline, 1 uM var: ligand Varenicline 1 uM
# Outline: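 Percent quench compares mean YFP signal over the final 10 s with the 15 s baseline before ligand, added in iodide-containing extracellular solution (pH 7.2). Cells were LX293T carrying a YFP anion reporter, transiently transfected with the channel construct; plates were preincubated 30 min at 37 °C.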
# [1] = 1 nM CNL001, first column so headed
# [2] = 1 nM CNL001, second column so headed
# [3] = 3 nM brd (TC-5619/Bradanicline)
# [4] = 10 nM CNL001, first column so headed
# [5] = 10 nM CNL001, second column so headed
# [6] = 30 nM brd (TC-5619/Bradanicline)
# [7] = 50 nM CNL001, first column so headed
# [8] = 50 nM CNL001, second column so headed
# [9] = 100 nM CNL001, first column so headed
# [10] = 100 nM CNL001, second column so headed
# [11] = 300 nM brd (TC-5619/Bradanicline)
# [12] = 1 uM CNL001, first column so headed
# [13] = 1 uM CNL001, second column so headed
molecule,measurement,setting,value
"CODA407: engineered receptor: Y210F in SEQ ID NO: 33 (protein, synthetic sequence of chimeric LGIC) MRCSPGGVWLALAASLLHVSLQGEFQRKLYKELVKNYNPLERPVANDSQPLTVYFSLSLLQIMDVDEKNQVLTTNIWLQMSWTDHYLQWNVSEYPGVKTVRFPDGQIWKPDILLYNSADERFDATFHTNVLVNSSGHCQYLPPGIFKSSCPMDLKNFPMDVQTCKLKFGSWSYGGWSLDLQMQEADISGYIPNGEWDLVGIPGKRSERFFECCKEPYPDVTFTVTMRRRMGYYLIQMYIPSLLIVILSWISFWINMDAAPARVGLGITTVLTMTTQSSGSRASLPKVSYVKAIDIWMAVCLLFVFSALLEYAAVNFVSRQHKELLRFRRKRRHHKSPMLNLFQEDEAGEGRFNFSAYGMGPACLQAKDGISVKGANNSNTTNPPPAPSKSPEEMRKLFIQRAKKIDKISRIGFPMAFLIFNMFYWIIYKIVRREDVHNQ",YFP fluorescence quenching using CNL001 (percent quench),[1],−10.845%
same,YFP fluorescence quenching using CNL001 (percent quench),[2],−2.629%
same,YFP fluorescence quenching using TC-5619/Bradanicline (percent quench),[3],−0.53%
same,YFP fluorescence quenching using CNL001 (percent quench),[4],4.66%
same,YFP fluorescence quenching using CNL001 (percent quench),[5],12.246%
same,YFP fluorescence quenching using TC-5619/Bradanicline (percent quench),[6],8.71%
same,YFP fluorescence quenching using CNL001 (percent quench),[7],29.307%
same,YFP fluorescence quenching using CNL001 (percent quench),[8],41.78%
same,YFP fluorescence quenching using ABT-126 (percent quench),50 nM abt (ABT-126),−13.07%
same,YFP fluorescence quenching using CNL001 (percent quench),[9],50.654%
same,YFP fluorescence quenching using CNL001 (percent quench),[10],62.054%
same,YFP fluorescence quenching (percent quench),100 nM CNL002,−12.47%
same,YFP fluorescence quenching using ABT-126 (percent quench),100 nM abt (ABT-126),0.1%
same,YFP fluorescence quenching using AZD-0328 (percent quench),100 nM azd0328,0.85%
same,YFP fluorescence quenching using ABT-126 (percent quench),300 nM abt (ABT-126),5.97%
same,YFP fluorescence quenching using AZD-0328 (percent quench),300 nM azd0328,1.25%
same,YFP fluorescence quenching using TC-5619/Bradanicline (percent quench),[11],76.26%
same,YFP fluorescence quenching using CNL001 (percent quench),[12],81.742%
same,YFP fluorescence quenching using CNL001 (percent quench),[13],81.304%
same,YFP fluorescence quenching (percent quench),1 uM CNL002,−3.93%
same,YFP fluorescence quenching using ABT-126 (percent quench),1 uM abt (ABT-126),50.23%
same,YFP fluorescence quenching (percent quench),10 uM ach (acetylcholine),−3.75%
same,YFP fluorescence quenching (percent quench),30 uM CNL002,80.97%
same,YFP fluorescence quenching using AZD-0328 (percent quench),30 uM azd0328,82.08%
same,YFP fluorescence quenching (percent quench),100 uM ach (acetylcholine),−1.6%
same,YFP fluorescence quenching (percent quench),1 mM ach (acetylcholine),71.65%
same,YFP fluorescence quenching (percent quench),3 mM ach (acetylcholine),79.09%
same,"YFP fluorescence quenching using Facinicline, 30 nM fac",,−21.94
same,"YFP fluorescence quenching using Facinicline, 300 nM fac",,−22.46
same,"YFP fluorescence quenching using Facinicline, 30 uM fac",,82.63
same,"YFP fluorescence quenching using TC-6987, 1 uM tc6987",,−15.22
same,"YFP fluorescence quenching using TC-6987, 10 uM tc6987",,−19.89
same,"YFP fluorescence quenching using TC-6987, 500 uM tc6987",,−33.32
same,"YFP fluorescence quenching using Varenicline, 3 nM var",first column,2.441
same,"YFP fluorescence quenching using Varenicline, 3 nM var",second column,7.326
same,"YFP fluorescence quenching using Varenicline, 30 nM var",first column,1.275
same,"YFP fluorescence quenching using Varenicline, 30 nM var",second column,12.96
same,"YFP fluorescence quenching using Varenicline, 300 nM var",first column,13.119
same,"YFP fluorescence quenching using Varenicline, 300 nM var",second column,2.355
same,"YFP fluorescence quenching using Varenicline, 500 nM var",first column,11.539
same,"YFP fluorescence quenching using Varenicline, 500 nM var",second column,6.571
same,"YFP fluorescence quenching using Varenicline, 1 uM var",first column,8.397
same,"YFP fluorescence quenching using Varenicline, 1 uM var",second column,7.309
"CODA409: engineered receptor: Y210W in SEQ ID NO: 33 (protein, synthetic sequence of chimeric LGIC) MRCSPGGVWLALAASLLHVSLQGEFQRKLYKELVKNYNPLERPVANDSQPLTVYFSLSLLQIMDVDEKNQVLTTNIWLQMSWTDHYLQWNVSEYPGVKTVRFPDGQIWKPDILLYNSADERFDATFHTNVLVNSSGHCQYLPPGIFKSSCPMDLKNFPMDVQTCKLKFGSWSYGGWSLDLQMQEADISGYIPNGEWDLVGIPGKRSERFWECCKEPYPDVTFTVTMRRRMGYYLIQMYIPSLLIVILSWISFWINMDAAPARVGLGITTVLTMTTQSSGSRASLPKVSYVKAIDIWMAVCLLFVFSALLEYAAVNFVSRQHKELLRFRRKRRHHKSPMLNLFQEDEAGEGRFNFSAYGMGPACLQAKDGISVKGANNSNTTNPPPAPSKSPEEMRKLFIQRAKKIDKISRIGFPMAFLIFNMFYWIIYKIVRREDVHNQ",YFP fluorescence quenching using CNL001 (percent quench),[1],−8.914%
same,YFP fluorescence quenching using CNL001 (percent quench),[2],−14.319%
same,YFP fluorescence quenching using TC-5619/Bradanicline (percent quench),1 nM brd (TC-5619/Bradanicline),−13.45%
same,YFP fluorescence quenching using TC-5619/Bradanicline (percent quench),[3],−0.64%
same,YFP fluorescence quenching using CNL001 (percent quench),[4],−1.444%
same,YFP fluorescence quenching using CNL001 (percent quench),[5],4.393%
same,YFP fluorescence quenching using TC-5619/Bradanicline (percent quench),10 nM brd (TC-5619/Bradanicline),37.3%
same,YFP fluorescence quenching using TC-5619/Bradanicline (percent quench),[6],76.36%
same,YFP fluorescence quenching using CNL001 (percent quench),[7],11.897%
same,YFP fluorescence quenching using CNL001 (percent quench),[8],11.434%
same,YFP fluorescence quenching using ABT-126 (percent quench),50 nM abt (ABT-126),8.23%
same,YFP fluorescence quenching using CNL001 (percent quench),[9],12.719%
same,YFP fluorescence quenching using CNL001 (percent quench),[10],16.053%
same,YFP fluorescence quenching (percent quench),100 nM CNL002,−14.92%
same,YFP fluorescence quenching using ABT-126 (percent quench),100 nM abt (ABT-126),55.53%
same,YFP fluorescence quenching using AZD-0328 (percent quench),100 nM azd0328,−6.57%
same,YFP fluorescence quenching using TC-5619/Bradanicline (percent quench),100 nM brd (TC-5619/Bradanicline),72.72%
same,YFP fluorescence quenching using ABT-126 (percent quench),300 nM abt (ABT-126),74.82%
same,YFP fluorescence quenching using AZD-0328 (percent quench),300 nM azd0328,−4.84%
same,YFP fluorescence quenching using TC-5619/Bradanicline (percent quench),[11],75.47%
same,YFP fluorescence quenching using ABT-126 (percent quench),500 nM abt (ABT-126),77.39%
same,YFP fluorescence quenching using CNL001 (percent quench),[12],14.077%
same,YFP fluorescence quenching using CNL001 (percent quench),[13],15.495%
same,YFP fluorescence quenching (percent quench),1 uM CNL002,−0.85%
same,YFP fluorescence quenching using ABT-126 (percent quench),1 uM abt (ABT-126),77.77%
same,YFP fluorescence quenching using TC-5619/Bradanicline (percent quench),1 uM brd (TC-5619/Bradanicline),78.73%
same,YFP fluorescence quenching using ABT-126 (percent quench),3 uM abt (ABT-126),69.33%
same,YFP fluorescence quenching using ABT-126 (percent quench),10 uM abt (ABT-126),74.79%
same,YFP fluorescence quenching (percent quench),10 uM ach (acetylcholine),−5.43%
same,YFP fluorescence quenching (percent quench),30 uM CNL002,29.62%
same,YFP fluorescence quenching using ABT-126 (percent quench),30 uM abt (ABT-126),75.61%
same,YFP fluorescence quenching using AZD-0328 (percent quench),30 uM azd0328,81.64%
same,YFP fluorescence quenching using ABT-126 (percent quench),50 uM abt (ABT-126),75.72%
same,YFP fluorescence quenching using ABT-126 (percent quench),100 uM abt (ABT-126),78.52%
same,YFP fluorescence quenching (percent quench),100 uM ach (acetylcholine),17.14%
same,YFP fluorescence quenching (percent quench),1 mM ach (acetylcholine),78.84%
same,YFP fluorescence quenching (percent quench),3 mM ach (acetylcholine),78.55%
same,"YFP fluorescence quenching using Facinicline, 30 nM fac",,−10.93
same,"YFP fluorescence quenching using Facinicline, 300 nM fac",,−5.82
same,"YFP fluorescence quenching using Facinicline, 10 uM fac",ligand Facinicline 10 uM,60.97
same,"YFP fluorescence quenching using Facinicline, 30 uM fac",,57.77
same,"YFP fluorescence quenching using TC-6987, 1 uM tc6987",,62.82
same,"YFP fluorescence quenching using TC-6987, 10 uM tc6987",,78.66
same,"YFP fluorescence quenching using TC-6987, 500 uM tc6987",,70.35
same,"YFP fluorescence quenching using Varenicline, 3 nM var",first column,7.776
same,"YFP fluorescence quenching using Varenicline, 3 nM var",second column,−2.964
same,"YFP fluorescence quenching using Varenicline, 30 nM var",first column,−5.568
same,"YFP fluorescence quenching using Varenicline, 30 nM var",second column,3.024
same,"YFP fluorescence quenching using Varenicline, 300 nM var",first column,2.815
same,"YFP fluorescence quenching using Varenicline, 300 nM var",second column,3.06
same,"YFP fluorescence quenching using Varenicline, 500 nM var",first column,1.766
same,"YFP fluorescence quenching using Varenicline, 500 nM var",second column,2.819
same,"YFP fluorescence quenching using Varenicline, 1 uM var",first column,1.844
same,"YFP fluorescence quenching using Varenicline, 1 uM var",second column,−4.059
